US20220256794A1, “TERPENE SYNTHASES AND TRANSPORTERS” (The State of Israel, Ministry of Agriculture & Rural …, priority 2019, published 2022)

How the values were obtained:
[1] = Terpene synthase activity assay with GPP; type: biochemical; conditions: TPS expressed in E. coli; 10 μM GPP, overnight at 30° C., SPME GC-MS
Experimental: Putative terpene synthase genes were synthesized by the TWIST Co., and cloned into Novagen pET-28a(+) with a 6×His tag at its' N-terminus. The recombinant plasmid was then sequenced for authentication and transformed into BL21(DE3) pLysS and pLysE strains of E. coli (Agilent Technologies) for heterologous expression. An overnight culture was used to inoculate a 20-200 mL culture, induced with 0.1 mM IPTG at an OD 600 nm >0,8 for initiation of recombinant protein translation then incubated at 18° C. and 250 RPM overnight. The cells were collected by centrifugation and the recombinant enzymes were extracted either as a crude extract or purified on a Ni-NTA agarose resin as previously described [Gonda I. et al., The Plant Journal (2013) 61, 458-472].
To determine the terpene synthase catalytic activity, reaction mixtures containing 100 μl of protein extract or purified protein were incubated overnight at 30° C. with either 10 μM geranyl diphosphate (GPP) or farnesyl diphosphate (FPP), in a final volume of 200 μl using a buffer containing 50 mM bis-tris, pH 6.9, 1 mM DTT, 10% (v/v) glycerol, 0.1 mM of MnCl2 and 10 mM of MgCl2. The volatiles produced were extracted by solid-phase microextraction (SPME) according to the methodology previously described [Iijima Y. et al., Plant Physiol (2004) 136: 3724-3736]. As controls, reactions were carried out without the cofactors MnCl2 and MgCl2, or protein extracts were heat inactivated by incubation at 100° C. for 5 minutes, or a short peptide product of an empty pET100 vector was utilized.
For solid-phase microextraction (SPME) analysis, a 57298-U SPME fiber assembly Divinylbenzene/Carboxen/Polydimethylsiloxane (DVB/CAR/PDMS, Supelco) needle size 23 ga, StableFlex, was used with an autosampler and analyzed by GC-MS as previously described [Davidovich-Rikanati R. et al., Nature Biotech (2007) 25:899-901; Davidovich-Rikanati R. et al., Plant J (2008) 56:228-238]. The SPME fiber were adsorbed for 30 min. by automatic HS-SPME at 50° C. followed by injection of the fiber into a GC-MS injection port for 5 min. (splitless), for desorption of the volatiles. Chiral separation was conducted on a Restek Rt™-bDEXsm column (30 m length 0.25 mm i.d., 0.25 μm film thickness, 2,3-di-O-methyl-6-O-tert-butyl dimethylsilyl beta cyclodextrin added into 14% cyanopropylphenyl/86% dimethyl polysiloxane). Helium (0.8 ml min-1) was used as a carrier gas with splitless injection. The injector temperature was 250° C., and the detector temperature was 230° C. The following conditions were used: initial temperature 40° C. for 5 min., followed by a ramp of 2° C./min. to 110° C., and 10° C./min up to 230° C. (5 min.). A quadrupole mass detector with electron ionization at 70 eV was used to acquire the MS data in the range of 41 to 350 m/z. The identification of the volatiles was assigned by comparison spectral data with the W10N11 and HPCH2205 GC-MS libraries and with authentic standard when available.

yeast cells = test: Yeast growth (turbidity A600) in the presence of CBD; type: cell-based, Saccharomyces cerevisiae (strain Y1HGold); conditions: 0.5 mM CBD, 7-12 hours, FIG. 2
Experimental: The genes were expressed in yeast and tobacco. For yeast, the ABC and PTR Transporter genes were synthesized by the TWIST Co, cloned and expressed (individually) in the yeast expression vector pESC-URA (Agilent Technologies) for expression under the yeast native gal-10 promoter. Competent Saccharomyces cerevisiae (strain Y1HGold, CloneTech) cells were prepared, transformed by each of the resulting vector and selected on yeast synthetic media lacking Uracil as previously described [GietzR. D., Methods Mol. Biol. (2014) 1205:1-12].
An alternative method is to measure the yeast growth as a function of turbidity. Transformed yeast cells were grown on URA-glucose broth at 30° C. at 200 RPM, and after 24 hours 100 μl was used to inoculate 5 ml of URA-galactose broth in the same conditions till O.D.600 of 1.5. The yeast was further diluted to OD600=0.05 with 10 ml URA-galactose, and divided into two 5 ml aliquots into separate 50 ml falcon tubes. The first falcon (control) was added 78 μl acetonitrile (the solvent that the CBD was dissolved in), and the second one was added 78 μl CBD solution in acetonitrile (final CBD concentration=0.5 mM). […]

Molecule | Monoterpenes produced with GPP [1] | inhibition of yeast growth in response to CBD, transporter-expressing yeast vs control yeast (yeast cells)
792-7: Cannabis terpene synthase gene product, amino acid SEQ ID NO: 12 (protein, Terpene Synthase Gene Amino acid sequence of the 45 identified gene products) MSPCEATIDEKRPNMPKFTPTIWGDYFMSSASNHHHSSLMETMENNNKESYEKIIEMKEQVKNKLLHGLHPLENPLETLEYIDDIQRLGLSYYFENEIEQNLEQFHNNYQNLIDFGDNNLYADALCFRLLRQQGYNIACDIFDKYKNEKGKFKESISSDIRGMLNLYEAAQMRVHGEKILDEALIFTTTHLESSVKTCQLSSPYLDLVKHALMHPIRKSLQRREARLYISLYHQLPSHEEILLTLAKLDFNLLQKLHQKELSYITRWWKEFDYKSKHSFIKDRIVECYFWVYGVFFEAETSQIRLIITKLIAILTIIDDAYDSFGTLEELEPFTQAIERWDICAIDTLPEYMKIFYMKLLEIYNEIEQFSKERSYCPSYAKKGVQSLIRAYFKEAKWLHTKYIPTLDEYMPVGVDSAGSFMLISMVFIGMGDIVTKHSMDWIFSNPQPKIIQTMAIVGRVMNDIGYHKSERKKSSGEIVASTVECYMKQYGVTGEEAIEKLSEQVKDSWKDLNEDLLNPITIPRPLLMQVLKLVRVNHEIYREGDGFTQPTLLKNLIHSLIINPIDF | beta-myrcene/geraniol | –
796-3: Cannabis terpene synthase gene product, amino acid SEQ ID NO: 23 (protein, Terpene Synthase Gene Amino acid sequence of the 45 identified gene products) MDTQRKLQAEQLSCPTKSHELIFDHKSDHQRRSANYTPTIWKYDFLESLNNKYDSEEYKKRSEKLIEDVRHNIVETKDLKGMLELINTIRKLSLTYHFEDEVKKVLDKISSSNYYYNNKDIKDPRLVGDDLYLAALYFRLLRLHGYQVSQDIFVGYNSVDYKKGGGTHNITSTEVKVMIELLEASHVAFECEDTLTEAKALMEENLKIAFPDNCNKYIPKHEVVHALELPSHWRVQWFDVKWQIEAYRQHGDPDTNTTTTTSLLVDLAKLNFNIIQATLQKDLRELSSWWKNVGLSEKLEFARDRLVESFMCTVGLAFQPEYKSLRKCLTKVVNFILIVDDVYDVYGSLEELRHFTNAVNRWDVRETEELPDCMKICFQALYHTTCEIASEIETKNGCKLVLPNLKGAWTDFCKSLLMEAEWYHKGYIPSLEEYLSNAWISSSGPLLLLHSYLAMPNQTNTASSLDISKDLVYNISLIIRLCNDLGTSAAEQERGDAASSIVCYMQETKSSEEEARKHIREMIRKTWKKINKTCFSTCGSSSLSLSFIDIALNTARVAHSLYQSGDAFSAQHTDYKTHILSLLVHPLIPNK | geraniol | –
T-AG2575-2: Cannabis ABC-G transporter gene product, amino acid SEQ ID NO: 56 (protein, ABC+PTR Transporter amino acid sequence (of the 12 identified gene products)) MEVGDLYRAGNSLRNISLRSSTSSVWRGNNNNNNNKDEYFSKSRREDDINDEEALTWAALEKLPTYDRLRKGILTTSKGETTEVDVINLGFKQRKDLLQRLVNVADEDNESFLLKLKQRIQTVGIDLPTIEVRFENVKVEADVHVGSRALPSFINFCINIIEMLVSFLPILKSKKKHVTILDDVSGAIKPGRLTLLLGPPSSGKTTLLLTLAGKLASELKFSGRVTYNGHEMNEFIPQRTAAYISQHDVHIGEMTVRETLSFSARCQGVGTRYEMLAELSRREKEANIKPDPDIDIFMKATSTEGQKSSVVTDYVLKILGLEVCADTVVGDEMLRGISGGQRKRVTTGEMLVGPSGVLFMDEISTGLDSSTTYQIVNSLKQYVHIFNGTNVISLLQPAPETYDLFDDIILLSDGHIVYQGPRENVLEFFEFTGFKCPERKAIADFLQEVTSKKDQAQYWTRGDEAYRFVSAKEFVEAFKSFHVGQKIREYLSTPFDKTKSHPAALTTKNFGLNKMELLKACMSREYLIMKRNSFVHIFKIVQLSVMGLIHGTLFLRTKMHHRTLEDGTIYLGSLFFAALMIMFNGMSEIPMTIAKLPVFYKQRDLQFFPAWAYAVPSMLFKVPIAFLEVAVWIILTYYTTGLEPSVVRMFRLYFILVIVNQMASGLFRSIAALSRNMIIANTFGAFSLLLLFVLGGFVLSRDDINSGWIWAYWVTPLMYGQTGILVNEFRGSKWNKVTPNSTETLGIQVLKSKGFFTDSYWYWLGFGVLVAYTVLFNILYTLALNYLNSIEKSQALSNEDPENNDHEIQVGRETRTNEIQQTSSINNTGENQSKKKGMILPFEPHSITFNDVIYSVDMPQAMKNQGVVEDKLVLLKGVSGSFRPGVLTALMGISGAGKTTLMDVLAGRKTGGYIEGDIRISGYPKKQETFARISGYCEQNDIHSPHVTVYESLLYSAWLRLPTEVDSEKRKMFIEEVMELVELTPLRQALVGLPGVSGLSTEQRKRLTIAVELVANPSIIFMDEPTSGLDARAAAIVMRTVRNTVDTGRTVVCTIHQPSIDIFEAFDELFLMKRGGEEIYVGPLGRHSCHLINYFEAIEGVSKIKNGYNPGTWMLEVSSSAQEIALGVDFANIYKNSELCKRNKDLIKELSSPAPGSKDLYFPTQFSRSLNTQCIACLWKQRQSYWRNPLYTAVRFMFTTFIALIFGTVFWDLGSKRSNIQDLSNALGSMYCAVLFIGIQNASSVQPVVSVERSVFYREKAAGMYSAFPYSFGQLVVEIPYILCQSVVYCLIVYAMIGFEWTAIKFFWFLFFSFFSMLYFTFYGMMAVGITPNNHIASIVSSAFYSVWNLFSGFIIPRTRMPVWWKWYYWGCPVSWTLYGLLVSQYGDVDDVINAVTGETVKQYLRSYLGYKHDFIGVVAVVNVLFALLFGSIFAFSVKILNFQNR | – | reduced inhibition of growth
795-1: Cannabis terpene synthase gene product, amino acid SEQ ID NO: 18 (protein, Terpene Synthase Gene Amino acid sequence of the 45 identified gene products) MITGVISSSTTIFKEQPEAIVRRSGNYKPTLWDAHFFKSLQVIYTEESYGKRINELKEDVRRILEKEAENPLVKLEQINDLSRLGISYHFEDQIKTILNLTFNNNNALWKKDNLYATALHFKLLRQYGFNPVSSEVFNAFKDQKKEFKESLSKDVKGMVCLYEASFYSFRGEPILDEARDFTTKHLKQYLMTRQCQTKSVDHDDDHDLVKLVEHALDLPLHWRLPRLEARWFIDMYAERNYDMNPTFLDFAKLDYNFVQSAYQKELKYISRWWSGSRLTERLPFARDRVVEIFYSAVALKYEAEFGFVRTVMTKIGLLLTLMDDIYDVYGTLDELQLFLGAIERWNINELDQLPDYMKILFVAFYNNVNEISYYVLKENGIHIIKYLKKALGDLCKCYMEEAKWFHSGHIPSLEEFIENGWKSITIPLCLIYHYCLITTSITEQDMEHLLQYPTILRVSGTVFRFIDDLGTSSDELERGDNPSSIQCYMREKGVSENESREHIWNLISEGWKEINEVKASNSPYSQVFIESAIDFVRGAMEMYHKGDGFGTNQDRYLKTKVVNMFFDPIPI | geraniol | –
